T1: cynomolgus monkey FcγRIIa2 extracellular domain with C-terminal His-tag (cynomolgus monkey)
T1 construct: also called cyno FcgRIIa2; cynoFcγRIIa2
T1 chain: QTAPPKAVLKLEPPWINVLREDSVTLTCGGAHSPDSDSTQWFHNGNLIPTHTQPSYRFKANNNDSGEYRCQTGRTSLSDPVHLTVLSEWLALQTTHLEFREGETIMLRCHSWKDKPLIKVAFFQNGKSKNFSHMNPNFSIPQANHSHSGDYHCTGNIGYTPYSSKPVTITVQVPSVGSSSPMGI

T2: cynomolgus monkey FcγRIIb extracellular domain with C-terminal His-tag (cynomolgus monkey)
T2 construct: also called cyno FcgRIIb; cynoFcγRIIb
T2 chain: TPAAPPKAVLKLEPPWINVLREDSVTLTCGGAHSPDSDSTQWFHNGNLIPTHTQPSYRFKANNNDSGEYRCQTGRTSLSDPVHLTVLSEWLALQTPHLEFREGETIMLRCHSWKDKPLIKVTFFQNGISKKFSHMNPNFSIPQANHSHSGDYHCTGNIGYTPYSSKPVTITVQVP

T3: cynomolgus monkey FcγRIIa3 extracellular domain with C-terminal His-tag (cynomolgus monkey)
T3 construct: also called cyno FcgRIIa3; cynoFcγRIIa3
T3 chain: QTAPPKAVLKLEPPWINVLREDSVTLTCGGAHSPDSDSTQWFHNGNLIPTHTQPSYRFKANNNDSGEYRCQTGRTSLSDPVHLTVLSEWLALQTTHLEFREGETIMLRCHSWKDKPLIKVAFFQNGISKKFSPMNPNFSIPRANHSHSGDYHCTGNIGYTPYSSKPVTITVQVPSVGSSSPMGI

T4: human FcγRIIaR extracellular domain with C-terminal His-tag (human, UniProt P12318 34-217)
T4 construct: also called human FcgRIIaR; FcγRIIa (type R)
T4 chain: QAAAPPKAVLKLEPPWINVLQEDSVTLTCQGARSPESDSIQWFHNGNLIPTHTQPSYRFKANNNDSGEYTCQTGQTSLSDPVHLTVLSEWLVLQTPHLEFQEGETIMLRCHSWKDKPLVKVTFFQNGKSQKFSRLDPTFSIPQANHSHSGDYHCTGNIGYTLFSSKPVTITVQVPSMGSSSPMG

T5: cynomolgus monkey FcγRIIa1 extracellular domain with C-terminal His-tag (cynomolgus monkey)
T5 construct: also called cyno FcgRIIa1; cynoFcγRIIa1
T5 chain: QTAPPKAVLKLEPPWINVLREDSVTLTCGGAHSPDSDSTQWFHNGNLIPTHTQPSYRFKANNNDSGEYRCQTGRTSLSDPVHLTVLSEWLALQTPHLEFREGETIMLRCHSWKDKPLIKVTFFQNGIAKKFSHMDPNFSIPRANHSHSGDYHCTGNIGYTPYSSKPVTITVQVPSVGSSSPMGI

T6: human FcγRIIaH extracellular domain with C-terminal His-tag (human, UniProt P12318 34-217)
T6 construct: also called human FcgRIIaH; FcγRIIa (type H)
T6 sequence: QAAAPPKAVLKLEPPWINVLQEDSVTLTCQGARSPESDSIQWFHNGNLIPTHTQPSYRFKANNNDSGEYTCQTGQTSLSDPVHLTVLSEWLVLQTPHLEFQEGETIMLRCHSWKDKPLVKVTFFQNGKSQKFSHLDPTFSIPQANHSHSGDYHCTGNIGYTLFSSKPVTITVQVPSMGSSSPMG

T7: cynomolgus monkey FcγRIIIaS extracellular domain with C-terminal His-tag (cynomolgus monkey, UniProt Q8SPW2 21-206 at identity 1.00))
T7 construct: also called cyno FcgRIIIaS; cynoFcγRIIIaS
T7 chain: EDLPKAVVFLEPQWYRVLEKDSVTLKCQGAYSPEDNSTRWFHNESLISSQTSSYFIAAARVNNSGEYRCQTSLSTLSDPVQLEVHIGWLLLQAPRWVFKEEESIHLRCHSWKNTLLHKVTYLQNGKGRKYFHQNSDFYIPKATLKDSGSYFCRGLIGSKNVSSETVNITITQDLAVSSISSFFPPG


How the values were obtained:
[1] = target: T1, cynomolgus monkey FcγRIIa2 …; experiment: SPR (BIACORE), antibody captured, FcgR analyte
[2] = target: T2, cynomolgus monkey FcγRIIb extracellular …; experiment: SPR (BIACORE), antibody captured, FcgR analyte
[3] = target: T3, cynomolgus monkey FcγRIIa3 …; experiment: SPR (BIACORE), antibody captured, FcgR analyte
[4] = target: T4, human FcγRIIaR extracellular domain …; experiment: SPR (BIACORE), antibody captured, FcgR analyte
[5] = target: T5, cynomolgus monkey FcγRIIa1 …; experiment: SPR (BIACORE), antibody captured, FcgR analyte
[6] = target: T6, human FcγRIIaH extracellular domain …; experiment: SPR (BIACORE), antibody captured, FcgR analyte
[7] = target: T7, cynomolgus monkey FcγRIIIaS …; experiment: SPR (BIACORE), antibody captured, FcgR analyte
[8] = target: T3, cynomolgus monkey FcγRIIa3 …; experiment: SPR (BIACORE); KD of SG1 / KD of variant;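 also: relative to parent M103205H795-SG1 carrying the SG1 human heavy chain constant region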

Kd [1]	Kd [2]	Kd [3]	Kd [4]	Kd [5]	Kd [6]	Kd [7]	KD fold (SG1 = 1) [8]	Binder
690 nM	190 nM	1900 nM	880 nM	630 nM	570 nM	2200 nM	8.9 fold	M103205H795-MY209/M103202L889-SK1 (antibody, human IgG1, kappa, Substitutions introduced into M103205H795-SG1, expressed with M103202L889-SK1 as light chain; EU numbering) heavy: QVTLKESGPVLVKPTETLTLTCTVSGIDLSHDDISWVRQAPGKGLEWVGIISYAGSTYYASWAKGRLTISKDTSKNQVVLTMTNMDPVDTATYYCARGVPAYSHGGDLWGQGTLVTVSSASTKGPSVFPLAPSSKSTSGGTAALGCLVKDYFPEPVTVSWNSGALTSGVHTFPAVLQSSGLYSLSSVVTVPSSSLGTQTYICNVNHKPSNTKVDKKVEPKSCDKTHTCPPCPAPELLNGPSVFLFPPKPKDTLMISRTPEVTCVVVDVSDEDPEVKFNWYVDGVEVHNAKTKPREELYNSTYRVVSVLTVLHQDWLNGKEYKCKVSNTALPKPIEKTISKAKGQPREPQVYTLPPSREEMTKNQVSLTCLVKGFYPSDIAVEWESNGQPENNYKTTPPVLDSDGSFFLYSKLTVDKSRWQQGNVFSCSVMHEALHNHYTQKSLSLSP light: DIVMTQSPATLSLSPGERATLSCTSSQSVYHANWLSWFQQKPGQPPKLLIYWASTLAYGVPSRFSGSGSGTDFTLTISSLQPEDAATYYCAGGYGGGRYAFGQGTKVEIKRTVAAPSVFIFPPSDEQLKSGTASVVCLLNNFYPREAKVQWKVDNALQSGNSQESVTEQDSKDSTYSLSSTLTLSKADYEKHKVYACEVTHQGLSSPVTKSFNRGEC
4900 nM	1100 nM	23000 nM	830 nM	4300 nM	310 nM	2300 nM	0.7 fold	M103205H795-MY340/M103202L889-SK1 (antibody, human IgG1, kappa, Substitutions introduced into M103205H795-SG1, expressed with M103202L889-SK1 as light chain; EU numbering) heavy: QVTLKESGPVLVKPTETLTLTCTVSGIDLSHDDISWVRQAPGKGLEWVGIISYAGSTYYASWAKGRLTISKDTSKNQVVLTMTNMDPVDTATYYCARGVPAYSHGGDLWGQGTLVTVSSASTKGPSVFPLAPSSKSTSGGTAALGCLVKDYFPEPVTVSWNSGALTSGVHTFPAVLQSSGLYSLSSVVTVPSSSLGTQTYICNVNHKPSNTKVDKKVEPKSCDKTHTCPPCPAPELLLGPSVFLFPPKPKDTLMISRTPEVTCVVVDVSDEDPEVKFNWYVDGVEVHNAKTKPREELYNSTYRVVSVLTVLHQDWLNGKEYKCKVSNKALPKPIEKTISKAKGQPREPQVYTLPPSREEMTKNQVSLTCLVKGFYPSDIAVEWESNGQPENNYKTTPKVLDSDGSFFLYSKLTVDKSRWQQGNVFSCSVMHEALHNHYTQKSLSLSP light: DIVMTQSPATLSLSPGERATLSCTSSQSVYHANWLSWFQQKPGQPPKLLIYWASTLAYGVPSRFSGSGSGTDFTLTISSLQPEDAATYYCAGGYGGGRYAFGQGTKVEIKRTVAAPSVFIFPPSDEQLKSGTASVVCLLNNFYPREAKVQWKVDNALQSGNSQESVTEQDSKDSTYSLSSTLTLSKADYEKHKVYACEVTHQGLSSPVTKSFNRGEC
1600 nM	420 nM	4400 nM	350 nM	1400 nM	140 nM	2200 nM	3.5 fold	M103205H795-MY283/M103202L889-SK1 (antibody, human IgG1, kappa, Substitutions introduced into M103205H795-SG1, expressed with M103202L889-SK1 as light chain; EU numbering) heavy: QVTLKESGPVLVKPTETLTLTCTVSGIDLSHDDISWVRQAPGKGLEWVGIISYAGSTYYASWAKGRLTISKDTSKNQVVLTMTNMDPVDTATYYCARGVPAYSHGGDLWGQGTLVTVSSASTKGPSVFPLAPSSKSTSGGTAALGCLVKDYFPEPVTVSWNSGALTSGVHTFPAVLQSSGLYSLSSVVTVPSSSLGTQTYICNVNHKPSNTKVDKKVEPKSCDKTHTCPPCPAPELLTGPSVFLFPPKPKDTLMISRTPEVTCVVVDVSDEDPEVKFNWYVDGVEVHNAKTKPREELYNSTYRVVSVLTVLHQDWLNGKEYKCKVSNKALPKPIEKTISKAKGQPREPQVYTLPPSREEMTKNQVSLTCLVKGFYPSDIAVEWESNGQPENNYKTTPPVLDSDGSFFLYSKLTVDKSRWQQGNVFSCSVMHEALHNHYTQKSLSLSP light: DIVMTQSPATLSLSPGERATLSCTSSQSVYHANWLSWFQQKPGQPPKLLIYWASTLAYGVPSRFSGSGSGTDFTLTISSLQPEDAATYYCAGGYGGGRYAFGQGTKVEIKRTVAAPSVFIFPPSDEQLKSGTASVVCLLNNFYPREAKVQWKVDNALQSGNSQESVTEQDSKDSTYSLSSTLTLSKADYEKHKVYACEVTHQGLSSPVTKSFNRGEC
3000 nM	750 nM	3800 nM	530 nM	3400 nM	410 nM	760 nM	1.7 fold	M103205H795-MY339/M103202L889-SK1 (antibody, human IgG1, kappa, Substitutions introduced into M103205H795-SG1, expressed with M103202L889-SK1 as light chain; EU numbering) heavy: QVTLKESGPVLVKPTETLTLTCTVSGIDLSHDDISWVRQAPGKGLEWVGIISYAGSTYYASWAKGRLTISKDTSKNQVVLTMTNMDPVDTATYYCARGVPAYSHGGDLWGQGTLVTVSSASTKGPSVFPLAPSSKSTSGGTAALGCLVKDYFPEPVTVSWNSGALTSGVHTFPAVLQSSGLYSLSSVVTVPSSSLGTQTYICNVNHKPSNTKVDKKVEPKSCDKTHTCPPCPAPELLLGPSVFLFPPKPKDTLMISRTPEVTCVVVDVSDEDPEVKFNWYVDGVEVHNAKTKPREEQYNSTYRVVSVLTVLHQDWLNGKEYKCKVSNTALPKPIEKTISKAKGQPREPQVYTLPPSREEMTKNQVSLTCLVKGFYPSDIAVEWESNGQPENNYKTTPKVLDSDGSFFLYSKLTVDKSRWQQGNVFSCSVMHEALHNHYTQKSLSLSP light: DIVMTQSPATLSLSPGERATLSCTSSQSVYHANWLSWFQQKPGQPPKLLIYWASTLAYGVPSRFSGSGSGTDFTLTISSLQPEDAATYYCAGGYGGGRYAFGQGTKVEIKRTVAAPSVFIFPPSDEQLKSGTASVVCLLNNFYPREAKVQWKVDNALQSGNSQESVTEQDSKDSTYSLSSTLTLSKADYEKHKVYACEVTHQGLSSPVTKSFNRGEC
1000 nM	290 nM	3300 nM	850 nM		430 nM	2800 nM	3.2 fold	M103205H795-MY380/M103202L889-SK1 (antibody, human IgG1, kappa, Substitutions introduced into M103205H795-SG1, expressed with M103202L889-SK1 as light chain; EU numbering) heavy: QVTLKESGPVLVKPTETLTLTCTVSGIDLSHDDISWVRQAPGKGLEWVGIISYAGSTYYASWAKGRLTISKDTSKNQVVLTMTNMDPVDTATYYCARGVPAYSHGGDLWGQGTLVTVSSASTKGPSVFPLAPSSKSTSGGTAALGCLVKDYFPEPVTVSWNSGALTSGVHTFPAVLQSSGLYSLSSVVTVPSSSLGTQTYICNVNHKPSNTKVDKKVEPKSCDKTHTCPPCPAPELLNGPSVFLFPPKPKDTLMISRTPEVTCVVVDVSEEDPEVKFNWYVDGVEVHNAKTKPREEQYNSTYRVVSVLTVLHQDWLNGKEYKCKVSNKALPKPIEKTISKAKGQPREPQVYTLPPSREEMTKNQVSLTCLVKGFYPSDIAVEWESNGQPENNYKTTPKVLDSDGSFFLYSKLTVDKSRWQQGNVFSCSVMHEALHNHYTQKSLSLSP light: DIVMTQSPATLSLSPGERATLSCTSSQSVYHANWLSWFQQKPGQPPKLLIYWASTLAYGVPSRFSGSGSGTDFTLTISSLQPEDAATYYCAGGYGGGRYAFGQGTKVEIKRTVAAPSVFIFPPSDEQLKSGTASVVCLLNNFYPREAKVQWKVDNALQSGNSQESVTEQDSKDSTYSLSSTLTLSKADYEKHKVYACEVTHQGLSSPVTKSFNRGEC

— patent publication US20200317768A1 (published 2020)
